Results from paper PMC4001850.
Several values for one entry are separate records, joined by “and”; a condition that tells them apart may be missing. Equal entries are not always repeated. Where two headings read alike, the source gives them in different places.

How the values were obtained:
[1] = target: eAβPP_(19-624), His-Patch thioredoxin fusion of the entire ectodomain of AβPP695 (82-kDa) (human) (UniProt P05067); assay: SAXS
[2] = target: Aβ_(1-42) peptide; assay: cross-linking
[3] = target: Aβ_(1-40) peptide; assay: cross-linking
[4] = target: Aβ_(1-40) peptide; assay: cross-linking; remark: listed apart in the source

| stoichiometry N (Aβ molecules per eAβPP dimer) [1] | stoichiometry N [2] | stoichiometry N [3] | stoichiometry N [4] | Substance |
| --- | --- | --- | --- | --- |
| 6 | 3 | – | – | Aβ_(1-42) peptide |
| 8 | – | 2 | 12 and 18 | Aβ_(1-40) peptide |
